Results on 1 molecule are retold here after US9744220B2, “Compositions and methods for treating inflammatory diseases” (priority 2013, dated 2017).

The test system of one test is IL1-Ra, TSG-6 and COX-2. In words: Intravenous sPDNF into naïve mice, anti-inflammatory factor transcripts in heart and liver. The test is classed as in vivo. As to the method:
FIG. 2A is a graph showing stem cell marker expression in mice administered sPDNF. One set of three wild type C57BL/6 mice received intravenous (IV) PBS without (PBS) or with sPDNF (2 mg/kg) at 0, 3 and 24 hours (sPDNF 1d), and a second set IV sPDNF (2 mg/kg) for 6 days (sPDNF 6d). Mice were sacrificed 3 hr post injection and the indicated stem cells markers were quantified in the ventricles by real time PCR, and normalized to HPRT; *, p<0.05, **, p<0.001, ***, p<0.0001; SCF, stem cell factor, ns, not significant. FIG. 2B is a graph showing stem cell marker expression in MyD88^−/− mice administered sPDNF. TLR-deficient MyD88^−/− mice (C57BL/6 background) (2/group) were injected IV with a single dose of sPDNF (2 mg/kg), sacrificed at 3 hours post-injection, and the indicated cardiac stem cell markers assessed by qPCR. Data were normalized to HPRT and made relative to vehicle-treated controls (set at 1.0 and represented by the dashed line); **, P<0.01; and ***, P<0.005. FIG. 2C is a graph showing stem cell marker expression in mice administered sPDNF at various time points after injection. […] Cardiac Sca-1 and SCF transcripts were quantified by qPCR; **, P<0.001; ***, P<0.0005. FIG. 2D is a graph showing quantitation of Sca-1 expression in various organs of mice administered sPDNF. C57BL/6 mice (3 per group), average of two experiments) were injected IV with sPDNF at 4 mg/kg body weight or PBS, sacrificed 3 hours later, and Sca-1 mRNA quantified by qPCR in the liver, heart, colon and bone marrow (*, P<0.05, **, P<0.001; ns, not significant; dotted line represents Sca-1 mRNA of vehicle-treated mice set at 1.0, data are representative of 2 experiments. […] FIG. 2F is a graph showing quantitation of expression of inflammatory markers in mice administered sPDNF. Wild type and naïve mice (5 per group) were injected IV with a single dose of sPDNF (4 mg/kg), sacrificed 3 hr post-injection, and the L-1Ra, TSG-6, COX-2, and IDO transcripts quantified in the heart and liver. […]

For another test, the system named is H9c2 cardiomyocytes. In words: sPDNF stimulation of H9c2 cardiomyocytes, transcripts by qPCR. Type of test: cell-based, rat. As to the method: FIG. 8A is a graph showing dose-response of MCP-1 secretion to sPDNF stimulation. H9c2 cardiomyocytes were plated in 6-well plates, grown in low serum (0.1% FCS) overnight, and stimulated with the indicated doses of sPDNF for 3 hr. Secretion of MCP-1, MIP-2α and IL-6 was determined by ELISA. FIG. 8B is a graph showing dose-response of MCP-transcript expression. H9c2 cardiomyocytes were plated in 6-well plates, grown in low serum (0.1%) overnight, and stimulated with the indicated doses of sPDNF for 3 hr, and MCP-transcript quantified by qPCR. Chemokine gene expression was normalized to HPRT and fold change calculated relative to vehicle-treated cells. Points represent mean±SD fold change expression of triplicate samples; *P<0.05, **P<0.01, and ***P<0.005. FIG. 8C is a graph showing time course of MCP-1 and FKN transcripts expression. H9c2 cardiomyocytes were plated in 6-well plates (triplicate), grown in low serum (0.1%) overnight, stimulated with sPDNF (1 μg/ml) for the indicated times, and MCP-1 and FKN (data not shown) transcripts quantified by qPCR. Three experiments gave similar results.
Primary cardiomyocytes and cardiac fibroblasts, and H9c2 cardiomyocytes were seeded at 6-8×10^4 cells per well in DMEM/10% FCS and allowed to adhere overnight, serum starved (DMEM/0.1% FCS overnight), and treated with sPDNF (0.5 ng/ml-8 μg/ml, 0-16 h). Cell supernatants were collected and stored at −80° C. and cell monolayers rinsed with PBS and collected in Trizol for qPCR analysis.
RNA was isolated from Trizol lysates of cell monolayers or liquid nitrogen snap frozen tissue samples dissociated by a Tissue-Tearor mechanical homogenizer (Biospec Products, Inc.). cDNA was synthesized using the Quantitect Reverse Transcription kit (Qiagen) according to manufacturer's instructions. Chemokine and chemokine receptor transcripts were amplified using specific primers and normalized to HPRT using SYBR Green (Qiagen), and, if needed, expressed relative to control-unstimulated cells. The following primers were used: […]
On the technique in general: In qPCR the cycle at which signal appears reflects the starting amount.

Where [1] appears, read: H9c2, sPDNF 1 μg/ml, time course.

B1: sPDNF: N-terminal short-form of T cruzi PDNF that contains Trk-binding sites, recombinant; amino acids 1-588 of SEQ ID NO: 2; JR-100 is the commercial name (protein, listed as Trypanosoma cruzi)
chain: MGKTVVVASRMFWLMFFVPLLLAICPSEPAYALAPGSSRVELFKRKNSTVPFEDKAGKVTERVVHSFRLPALVNVDGVMVAIADARYDTSNDNSLIDTVAKYSVDDGETWETQIAIKNSRVSSVSRVVDPTVIVKGNKLYVLVGSYYSSRSYWSSHGDARDWDILLAVGEVTKSTAGGKITASIKWGSPVSLKKFFPAEMEGMHTNQFLGGAGVAIVASNGNLVYPVQVTNKKKQVFSKIFYSEDDGKTWKFGKGRSDFGCSEPVALEWEGKLIINTRVDWKRRLVYESSDMEKPWVEAVGTVSRVWGPSPKSNQPGSQSSFTAVTIEGMRVMLFTHPLNFKGRWLRDRLNLWLTDNQRIYNVGQVSIGDENSAYSSVLYKDDKLYCLHEINTDEVYSLVFARLVGELRIIKSVLRSWKNWDSHLSSICTPADPAASSSESGCGPAVTTVGLVGFLSGNASQNVWEDAYRCVNASTANAERVRNGLKFAGVGGGALWPVSQQGQNQRYRFANHAFTLVASVTIHEAPRAASPLLGASLDSSGGKKLLGLSYDEKHQWQPIYGSTPVTPTGSWETGKRYHLVLTMANKI
For the molecule B1, in the test with IL1-Ra, TSG-6 and COX-2, the “expression of COX-2” value is listed as “increased expression”, the “expression of IL1-Ra” value is “increased expression” and the “expression of TSG-6” value is “increased expression”. For the same molecule, in the test with H9c2 cardiomyocytes (H9c2, 3 hr, dose-dependent), the “FKN mRNA” value was “increase” and the “MCP-1 mRNA” value was “increase”. Also, in the test with H9c2 cardiomyocytes (setting [1]), the “time at which MCP-1 transcript dropped to levels similar to unstimulated cells” value is 8 h and the “time of maximal MCP-1 transcript increase after sPDNF stimulation” value amounted to 3 h.
